Data published in publication PMC5906681, “BRI1 and BAK1 interact with G proteins and regulate sugar-responsive growth and development in Arabidopsis” (Nature Communications, 2018).
One block for each binder: values may come before it.

Biological target: T1, GST-fused BRI1 kinase domain (Arabidopsis, UniProt O22476 814-1196)
T1 construct: BRASSINOSTEROID … 1 (BRI1), Arabidopsis, kinase domain, residues 814-1196; also called GST-BRI1-KD; BRI1-KD; source: E. coli (pGEX-4T-1); not shown: GST, N-terminal, kept
T1 sequence (looked up): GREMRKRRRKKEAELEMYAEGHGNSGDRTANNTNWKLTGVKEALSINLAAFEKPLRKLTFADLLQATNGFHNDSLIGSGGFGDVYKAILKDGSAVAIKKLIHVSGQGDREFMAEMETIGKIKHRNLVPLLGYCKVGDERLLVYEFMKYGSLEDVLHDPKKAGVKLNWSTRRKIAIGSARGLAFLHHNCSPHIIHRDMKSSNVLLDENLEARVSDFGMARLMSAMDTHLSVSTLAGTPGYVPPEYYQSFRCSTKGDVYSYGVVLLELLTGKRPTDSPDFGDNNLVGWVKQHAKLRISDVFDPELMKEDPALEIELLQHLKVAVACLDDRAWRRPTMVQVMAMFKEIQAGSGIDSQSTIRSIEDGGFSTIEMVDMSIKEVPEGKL
Assay: pull-down; about 15 μg GST fusion with about 30 μg MBP fusion in 900 μL TGH buffer (10% glycerol, 1% Triton X-100, 1.5 mM MgCl2, 150 mM NaCl, 1 mM EGTA, 50 mM HEPES, pH 7.5); 30 μL GST beads, about 1 h; immunoblot with anti-MBP and anti-GST
Settings: both partners purified

binding result: binds
B1: MBP-AGG3 (natural protein, Arabidopsis, UniProt Q6AWT8 1-251, looked up)
chain: MSAPSGGGEGGGKESAAGGVSSSSLAPSSLPPPRPKSPPEYPDLYGKRREAARVQMLEREIGFLEGEIKFIEGVQPASRCIKEVSDFVVANSDPLIPAQRKSRRSFRFWKWLCGPCLSLVSFCCCCQSKCSCHLRKPKCCNCTSCSCIGSKCCDGSCCSNICCCPRLSCPSCSCFRGCWCSCPDMSCCIPSCFRSCSCTRPSCLNKKKSSCCSCNCKIRWSSCFSCPKVRLCSCCFCNCKNLCSNPCCLAF
notes: AGG3, Arabidopsis G protein gamma subunit 3; also called G protein gamma subunit; source: E. coli (pMAL-c2); not shown: MBP, N-terminal, kept

binding result: binds
B2: MBP-AGG2 (natural protein, Arabidopsis, UniProt Q93V47 1-100, looked up)
chain: MEAGSSNSSGQLSGRVVDTRGKHRIQAELKRLEQEARFLEEELEQLEKMDNASASCKEFLDSVDSKPDPLLPETTGPVNATWDQWFEGPKEAKRCGCSIL
notes: AGG2, Arabidopsis G protein gamma subunit 2; also called G protein gamma subunit; source: E. coli (pMAL-c2); not shown: MBP, N-terminal, kept

binding result: binds
B3: MBP-AGG1 (natural protein, Arabidopsis, UniProt Q9FDX9 1-98, looked up)
chain: MREETVVYEQEESVSHGGGKHRILAELARVEQEVAFLEKELKEVENTDIVSTVCEELLSVIEKGPDPLLPLTNGPLNLGWDRWFEGPNGGEGCRCLIL
notes: AGG1, Arabidopsis G protein gamma subunit 1; also called G protein gamma subunit; source: E. coli (pMAL-c2); not shown: MBP, N-terminal, kept

binding result: binds
B4: MBP-AGB1 (natural protein, Arabidopsis, UniProt P49177 1-377, looked up)
chain: MSVSELKERHAVATETVNNLRDQLRQRRLQLLDTDVARYSAAQGRTRVSFGATDLVCCRTLQGHTGKVYSLDWTPERNRIVSASQDGRLIVWNALTSQKTHAIKLPCAWVMTCAFSPNGQSVACGGLDSVCSIFSLSSTADKDGTVPVSRMLTGHRGYVSCCQYVPNEDAHLITSSGDQTCILWDVTTGLKTSVFGGEFQSGHTADVLSVSISGSNPNWFISGSCDSTARLWDTRAASRAVRTFHGHEGDVNTVKFFPDGYRFGTGSDDGTCRLYDIRTGHQLQVYQPHGDGENGPVTSIAFSVSGRLLFAGYASNNTCYVWDTLLGEVVLDLGLQQDSHRNRISCLGLSADGSALCTGSWDSNLKIWAFGGHRRVI
notes: AGB1, Arabidopsis G protein beta subunit; Cloned into the EcoR I and Pst I sites of pMAL-c2; also called G protein beta subunit; source: E. coli (pMAL-c2); not shown: MBP, N-terminal, kept
